Assay: label from the status in PepcDB records

Sequence | protein production
MNEPQAFAQTDAEWLASINRARDWFQGPLGSLMLAEERRLLCDELTRYFGGYLVHYGPHAELPPSTGQIQRGVRLGPPLPGVDIACEEGAWPLSEHAADVVLLQHGLDFCLSPHRLLREAARTVRPGGHLLLIGINPWSLWGIRHYFAGDALRQARCIPPSRACDWLNLLGFALEKRRFGCYRPPLASAAWQSRLARLERWGDAWQSSGAGFYLLVARKLVVGLRPLRQSKREPRGQLVPMPVAKVSRRDSEI | failed
MAKNQSGSIFNTKVTIKYDKEKIIKLSSEMFSEDLCIQCGRCCMIHVYTTDEKIDPEIVYCNHLDVETKRCKIYKNRFNKEKECLSMLEAILTSALPKDCPYVKNYPSYEEPWFYGLLRGKNLK | failed
MRFVNPIPFVRDINRSKSFYRDRLGLKILEDFGSFVLFETGFAIHEGRSLEETIWRTSSDAQEAYGRRNMLLYFEHADVDAAFQDIAPHVELIHPLERQAWGQRVFRFYDPDGHAIEVGESLSQSGE | not failed
MFLSDPLPAGGDPVTRLTRYVTRELLPPLLAGTLLFTAILSFGYFFISSQWLSGVPVSLIARWIGYQLPDTLVKVLPMAVVLMTVVAFGRMNTERELVAVQAGGIGLGRVTRPAAVVGLLVTALSVWLSLWVAPRANVETRGLYWDALTGAGLSQLVGKTVDLGQGLTLAMQGYDAGARQMQGVRVEKWDKDNFRQGMVVFADAGKFEGNQLSLTGYQVYRVDYAAAAALSGVADNDPAAFREAVQKVFPLVQVPEDRNAALNLDTGLSRKQTLAQYADAIGADAEGWPELITKLTAPGVPQSERDAARVNLNRKLALPFANLVLVLAALPFALRFGRTLGVSLGVALVIAVAYYLLFSVGLTLAGLLPGLPELGVWLANIVFALGGLWLLRRA | failed
MTIAVTGSIATDHLMRFPGRFSEQLLPEHLHKVSLSFLVDDLVMHRGGVAGNMAFAIGVLGGEVALVGAAGADFADYRDWLKARGVNCDHVLISETAHTARFTCTTDVDMAQIASFYPGAMSEARNIKLADVVSAIGKPELVIIGANDPEAMFLHTEECRKLGLAFAADPSQQLARLSGEEIRRLVNGAAYLFTNDYEWDLLLSKTGWSEADVMAQIDLRVTTLGPKGVDLVEPDGTTIHVGVVPETSQTDPTGVGDAFRAGFLTGRSAGLGLERSAQLGSLVAVLVLESTGTQEWQWDYEAAASRLAGAYGEHAAAEIVAVLA | not failed
MSSSSVEQQVVQHFSHTHPLTKVDEYGEFTCGGCKTYGFGKTYRCAPCDYVLHDHCATCPFTLISFMHPQHELRLFVNGSENMCNICHRLVEGVYYHCETCGFDVHPLCTQHHQHVSYVPHPAHLLELSQCGASNTCMVCRGAILSWRYKCGPCMLDVHVECVNSSAPAATEPQMDLNTSQDPQPYNDECGGIHNYEHTNKGQVSGPSKRRRVFRFFKDVTVEVVSSIITEML | failed
MDALIMAGGKGTRLKENVEKPILNICEKPMIDYVIDSLLNSKIEKIYVAVSIHTPKTKEYLEKKYRLDRNYNPKIDIICTSGTNYVDDLNECMEFFKEPFLILSSDIPTIKPKVINSIIQDYLFVNNSCNRIESFCVVTKDDDYVGTPSINMGGYIPLGINILTPKHGEQTEILHVIKDIIVNVNTLSDKKLVETLINKVVELEHHHHHH | not failed
MDIMNVYKRGNTFQYDFYFKGKRYRKSGYLTKRDAQIAMNIKLNDLLEGYDTDNNLTFVDFYYRWLEITKLDIINDTSYKRYITAIKAFKDCFGNKLISDIDSLSYQKFLKDYGRGHFLNNGQLRPRTSNTVSKMNNCLKQAFESAVEQGYIKKNPAKNAKPFGLKSSQSIDDKFMSITQMKNLIHYVKKNDALSHLCIYILIITGSRFKPVQHLRYEDLNFKKSCIHLNDTKNKYSKRNVKVRIKDLEYIQSVINKHPINQNGYIFHNFINFISYSAINDVLVRFCLKYKYDKYTLKSLRHTHCSYLLAKGISIQYISKRLGHADIHTTLKIYSHLIKEFEDSENSLIEKNLNDLFSD | failed
MLHFQHTSIINAPPEVVWKFHERPDILQLLTPPWQPVRVVRREGGLEVGAITEFKLFLGPVPLTWLARHTECDKYRLFTDTQISGPFESWIHRHQFQPENGKTKLIDDVSYVMPGGETIEFIGGWLIQAQLEAMFRYRHYVTKRECE | failed
MRPVPPPPDRSGRCFASPRRSDLSPQAGRGEEPLAAPIEPSLPPSRPIPGRPAPPGTFAMDWTWYLFRFDGRINRALLWQALLIVALLAGLLEIVGQVIGILGGTRSTLKLAIDLDFDFGLDDLFKLVDPRASRSLASADRATSILKASGMALFFWIYLATTIKRLHDRDRSGWWIVPFFVVPGLFSQFADLLPNSNWMLPFSLAVSILWLWGLVEMFCRPGTSGHNRFGPDPLADFEDSSAASPAQGWDQSREIEIVPPNASPPGGMHVKRGA | failed

From a protein production outcome set (Wang et al. 2014)
